Assays:
fak2_human PTK2B [1] = target: fak2_human PTK2B (UniProt Q14289)
pak1_human PAK1 = pak1_human PAK1 (UniProt Q13153)
fak1_human PTK2 = fak1_human PTK2 (UniProt Q05397)
fak2_human PTK2B [2] = target: fak2_human PTK2B (UniProt Q14289); remark: listed apart in the source

Sequence of fak2_human PTK2B (Q14289 whole entry, looked up): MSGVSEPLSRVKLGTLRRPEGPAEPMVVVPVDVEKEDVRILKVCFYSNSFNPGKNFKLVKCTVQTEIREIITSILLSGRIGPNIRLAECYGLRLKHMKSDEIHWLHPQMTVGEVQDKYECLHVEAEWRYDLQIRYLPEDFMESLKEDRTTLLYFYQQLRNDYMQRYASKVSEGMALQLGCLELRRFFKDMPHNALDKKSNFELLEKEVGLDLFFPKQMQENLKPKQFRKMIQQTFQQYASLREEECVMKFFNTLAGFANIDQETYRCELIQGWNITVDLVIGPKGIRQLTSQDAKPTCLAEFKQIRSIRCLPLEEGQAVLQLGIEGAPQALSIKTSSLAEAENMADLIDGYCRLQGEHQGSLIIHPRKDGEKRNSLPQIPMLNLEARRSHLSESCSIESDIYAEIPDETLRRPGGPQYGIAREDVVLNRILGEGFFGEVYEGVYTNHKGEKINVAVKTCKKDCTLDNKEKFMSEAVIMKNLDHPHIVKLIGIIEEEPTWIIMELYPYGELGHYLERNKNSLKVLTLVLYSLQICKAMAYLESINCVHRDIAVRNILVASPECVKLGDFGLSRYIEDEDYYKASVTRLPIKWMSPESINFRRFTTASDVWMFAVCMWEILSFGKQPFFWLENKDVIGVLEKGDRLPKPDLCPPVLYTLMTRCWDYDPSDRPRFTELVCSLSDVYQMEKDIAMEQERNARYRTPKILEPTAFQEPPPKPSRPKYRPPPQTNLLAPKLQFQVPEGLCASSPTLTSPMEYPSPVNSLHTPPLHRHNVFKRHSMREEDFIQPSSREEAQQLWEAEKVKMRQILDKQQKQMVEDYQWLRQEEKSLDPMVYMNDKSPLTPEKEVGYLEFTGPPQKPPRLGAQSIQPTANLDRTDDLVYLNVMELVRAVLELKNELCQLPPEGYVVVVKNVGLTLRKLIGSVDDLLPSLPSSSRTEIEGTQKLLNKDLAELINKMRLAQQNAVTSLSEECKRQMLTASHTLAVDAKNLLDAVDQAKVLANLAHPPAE
Sequence of Rho-related GTP-binding protein RhoU (Homo sapiens), Q7L0Q8 F86C (Q7L0Q8 whole entry F86C): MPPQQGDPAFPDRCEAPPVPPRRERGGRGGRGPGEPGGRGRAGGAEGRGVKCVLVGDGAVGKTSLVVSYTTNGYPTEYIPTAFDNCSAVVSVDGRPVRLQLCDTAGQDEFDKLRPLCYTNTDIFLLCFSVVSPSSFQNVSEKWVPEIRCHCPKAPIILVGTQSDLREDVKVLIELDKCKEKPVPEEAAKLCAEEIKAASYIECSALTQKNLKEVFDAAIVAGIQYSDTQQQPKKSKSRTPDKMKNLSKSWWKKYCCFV
Sequence of pak1_human PAK1 (Q13153 whole entry): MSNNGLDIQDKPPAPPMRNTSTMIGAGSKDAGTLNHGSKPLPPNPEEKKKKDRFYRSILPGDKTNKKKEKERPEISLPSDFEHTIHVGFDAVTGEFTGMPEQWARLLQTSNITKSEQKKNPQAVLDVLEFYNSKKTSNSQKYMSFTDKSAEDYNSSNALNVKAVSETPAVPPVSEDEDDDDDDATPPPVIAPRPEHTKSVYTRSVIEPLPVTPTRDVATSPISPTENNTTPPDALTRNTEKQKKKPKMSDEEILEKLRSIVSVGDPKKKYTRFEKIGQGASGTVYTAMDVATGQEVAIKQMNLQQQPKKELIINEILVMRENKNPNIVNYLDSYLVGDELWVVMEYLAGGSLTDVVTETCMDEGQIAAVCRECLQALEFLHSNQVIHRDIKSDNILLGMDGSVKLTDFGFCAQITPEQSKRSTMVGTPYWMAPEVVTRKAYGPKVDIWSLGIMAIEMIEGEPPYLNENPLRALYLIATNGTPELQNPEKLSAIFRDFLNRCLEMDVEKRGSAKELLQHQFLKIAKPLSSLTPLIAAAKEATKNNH
Sequence of fak1_human PTK2 (Q05397 whole entry, looked up): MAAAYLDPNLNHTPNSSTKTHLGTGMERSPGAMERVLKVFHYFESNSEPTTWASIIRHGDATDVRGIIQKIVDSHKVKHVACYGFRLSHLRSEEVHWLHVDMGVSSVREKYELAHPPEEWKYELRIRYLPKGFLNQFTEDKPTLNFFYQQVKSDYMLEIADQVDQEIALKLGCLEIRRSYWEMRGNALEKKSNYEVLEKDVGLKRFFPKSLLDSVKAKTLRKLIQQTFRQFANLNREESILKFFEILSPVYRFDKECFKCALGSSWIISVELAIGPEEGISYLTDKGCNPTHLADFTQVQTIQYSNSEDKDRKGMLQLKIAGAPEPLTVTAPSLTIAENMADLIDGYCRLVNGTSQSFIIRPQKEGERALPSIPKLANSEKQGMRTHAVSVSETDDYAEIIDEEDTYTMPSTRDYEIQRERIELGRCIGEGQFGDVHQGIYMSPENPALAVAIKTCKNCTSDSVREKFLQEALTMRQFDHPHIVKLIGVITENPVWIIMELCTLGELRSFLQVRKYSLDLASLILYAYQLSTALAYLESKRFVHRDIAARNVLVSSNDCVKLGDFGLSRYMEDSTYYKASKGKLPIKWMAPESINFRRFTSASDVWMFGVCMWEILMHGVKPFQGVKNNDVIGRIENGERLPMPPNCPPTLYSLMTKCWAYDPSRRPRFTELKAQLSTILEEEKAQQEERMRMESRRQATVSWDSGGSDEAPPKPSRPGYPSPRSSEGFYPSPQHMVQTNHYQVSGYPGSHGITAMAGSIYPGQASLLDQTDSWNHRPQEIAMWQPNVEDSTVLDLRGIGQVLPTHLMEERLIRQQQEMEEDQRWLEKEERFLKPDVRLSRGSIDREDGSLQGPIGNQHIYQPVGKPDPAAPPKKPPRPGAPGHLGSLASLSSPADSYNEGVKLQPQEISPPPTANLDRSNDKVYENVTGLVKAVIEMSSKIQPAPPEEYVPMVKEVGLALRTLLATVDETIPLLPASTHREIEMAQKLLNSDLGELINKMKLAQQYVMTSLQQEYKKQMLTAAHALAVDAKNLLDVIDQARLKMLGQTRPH

Rho-related GTP-binding protein RhoU (Homo sapiens), Q7L0Q8 F83G
effect of a mutation on the interaction (fak2_human PTK2B [1]): disrupting interaction

Rho-related GTP-binding protein RhoU (Homo sapiens), Q7L0Q8 F86C
effect of a mutation on the interaction (fak2_human PTK2B [1]): disrupting interaction | effect of a mutation on the interaction (pak1_human PAK1): decreasing interaction

Rho-related GTP-binding protein RhoU (Homo sapiens), Q7L0Q8 P80G
effect of a mutation on the interaction (fak2_human PTK2B [1]): disrupting interaction | effect of a mutation on the interaction (pak1_human PAK1): decreasing interaction

Rho-related GTP-binding protein RhoU (Homo sapiens), Q7L0Q8 Q107L
effect of a mutation on the interaction (fak1_human PTK2): decreasing interaction

Rho-related GTP-binding protein RhoU (Homo sapiens), Q7L0Q8 T63N
effect of a mutation on the interaction (fak2_human PTK2B [2]): disrupting interaction | effect of a mutation on the interaction (fak1_human PTK2): decreasing interaction
